Numbering of substitutions follows the chain as printed. Numbers in names are those of the source.

To fix the notation:
T1: PfCSP central repeat peptide NANP_(20aa) (Plasmodium falciparum (repeat peptide, …))
T1 chain: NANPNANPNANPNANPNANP

T2: PfCSP N-junction peptide NPDP_(20aa) (Plasmodium falciparum (matches 3D7 …))
T2 chain: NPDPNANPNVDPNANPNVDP

B1: mAb 0786 wt (antibody, V domains shown)
VH: EVQLVESGGGLVQPGRSLRLSCTTSGFTFGDFAMSWVRQAPGKGLEWVGFIRSKANGGSTEYAASVKGRFTISRDDSKSIAYLQMDSLKTEDTAVYYCCRVWIQLWPLDYWGQGTLVTVSS
VL: EIVLTQSPGTLSLSPGERATLSCRASQSIGSSYLAWYQLKPGQAPRLLIYGASSRATGIPDRFSGSGSGTDFTLIISRLEPEDFAVYFCQQYGRSPWTFGQGTKVEIK
B2: mAb 0786 with H.N56 reverted to the GL Tyr (antibody, V domains shown)
VH: B1 VH with N56Y
VL: B1 VL
B3: mAb 0786 with Arg introduced at H.59 (antibody, V domains shown)
VH: B1 VH with S59R
VL: B1 VL
B4: mAb 0786 with H.A63P (antibody, V domains shown)
VH: B1 VH with A63P
VL: B1 VL

In the first assay the target is T1, PfCSP central repeat peptide NANP_(20aa). As to the kind of experiment: SPR.
With B1, the binding result is on record as “binds”.

For B2, the binding result is “binds”.

In the case of B3, the binding result was “binds”.

Take B4: the binding result is listed as “binds”.

The next assay has as its target T2, PfCSP N-junction peptide NPDP_(20aa). In words: SPR.
Take B1: the binding result is listed as “binds”.

Turning to B2, the binding result was “binds”.

On to B3, for which the binding result is given as “binds”.

Regarding B4, the binding result is reported as “binds”.
